Two compounds from publication PMC8087782, “Developing Nanodisc-ID for label-free characterizations of membrane proteins” (Communications Biology, 2021) can be followed below.

In general, pKd refers to the negative decadic logarithm of the Kd, by convention in mol/L.

For experiment [1], the target named is T1, MalFGK2 (Escherichia coli, UniProt P68187).
T1 construct: gene malK
Conditions: APEX2-MSP1D1 nanodiscs; MalE and maltose.

Experiment [2] deals with vesicle (v-) SNAREs reconstituted in APEX2-MSP1D1 nanodiscs (UniProt P63045). Kind of experiment: proximity labelling; nanodisc-ID: liposomes harboring t-SNAREs incubated with APEX2-MSP1D1 nanodiscs bearing v-SNAREs, without syt1-Ca2+; PL efficiency of t-SNAREs against v-SNARE nanodisc concentration; PBS, room temp; one-site fit; apparent.
Experiment [3] has the same target. Kind of experiment: proximity labelling; nanodisc-ID: liposomes harboring t-SNAREs incubated with APEX2-MSP1D1 nanodiscs bearing v-SNAREs, with syt1-Ca2+; PL efficiency of t-SNAREs against v-SNARE nanodisc concentration; PBS, room temp; one-site fit; apparent.
The target is the same in experiment [4]. Kind of experiment: proximity labelling; nanodisc-ID: liposomes harboring t-SNAREs incubated with APEX2-MSP1D1 nanodiscs bearing v-SNAREs, without syt1-Ca2+; PL efficiency of t-SNAREs against v-SNARE nanodisc concentration; PBS, room temp; one-site fit; apparent. This is another data set of the same source.

pKd: −log10 of the molar value.

T1 sequence (P68187 whole entry): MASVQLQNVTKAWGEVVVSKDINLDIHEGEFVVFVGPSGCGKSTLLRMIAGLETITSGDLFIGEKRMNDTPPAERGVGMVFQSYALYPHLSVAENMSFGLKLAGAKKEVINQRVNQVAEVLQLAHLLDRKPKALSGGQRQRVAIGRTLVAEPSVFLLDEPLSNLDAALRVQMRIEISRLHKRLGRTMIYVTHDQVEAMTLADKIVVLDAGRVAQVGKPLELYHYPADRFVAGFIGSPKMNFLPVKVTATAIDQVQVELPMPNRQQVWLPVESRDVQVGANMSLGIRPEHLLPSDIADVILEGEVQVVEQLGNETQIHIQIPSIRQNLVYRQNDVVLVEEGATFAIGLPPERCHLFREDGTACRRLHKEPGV
T1 sequence (P02916 whole entry, further chain): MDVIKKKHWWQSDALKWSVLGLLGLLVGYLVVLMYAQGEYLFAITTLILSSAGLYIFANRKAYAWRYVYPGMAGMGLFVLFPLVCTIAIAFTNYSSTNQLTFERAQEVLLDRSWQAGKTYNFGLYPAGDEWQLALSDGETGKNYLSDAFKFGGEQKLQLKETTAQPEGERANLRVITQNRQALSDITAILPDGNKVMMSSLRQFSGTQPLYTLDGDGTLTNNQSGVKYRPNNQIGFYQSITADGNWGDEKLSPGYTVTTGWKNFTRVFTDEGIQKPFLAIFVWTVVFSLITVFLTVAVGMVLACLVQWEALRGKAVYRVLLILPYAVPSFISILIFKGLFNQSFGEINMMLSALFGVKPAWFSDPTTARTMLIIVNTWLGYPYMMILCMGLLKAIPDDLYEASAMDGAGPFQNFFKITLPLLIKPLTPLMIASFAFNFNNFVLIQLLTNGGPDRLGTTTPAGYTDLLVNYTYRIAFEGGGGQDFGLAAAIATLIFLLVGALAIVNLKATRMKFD
T1 sequence (P68183 whole entry, further chain): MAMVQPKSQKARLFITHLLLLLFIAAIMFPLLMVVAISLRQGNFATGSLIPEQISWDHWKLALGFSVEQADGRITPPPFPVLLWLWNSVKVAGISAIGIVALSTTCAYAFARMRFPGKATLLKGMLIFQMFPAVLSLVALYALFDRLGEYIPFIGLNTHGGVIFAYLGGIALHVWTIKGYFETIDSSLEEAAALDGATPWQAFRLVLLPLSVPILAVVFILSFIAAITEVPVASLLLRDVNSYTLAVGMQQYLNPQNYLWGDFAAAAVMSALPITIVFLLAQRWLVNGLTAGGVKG

Turning to `Nc1ncnc2c1ncn2[C@@H]1O[C@H](COP(=O)(O)OP(=O)(O)OP(=O)(O)O)[C@@H](O)[C@H]1O` [ATP], the “photo-colorimetric ATPase assay” value in experiment [1] is “the ATPase activity of MalFGK2 was responding to the addition of MalE and maltose”.
“target (t-) membrane SNAREs embedded in liposomes (complex)”: the pKd in experiment [2] is 5.59; in experiment [3] it was 7.07; in experiment [4], 5.55.
